For one test, the target named is T1, ADAM 10 (human) Cat/Dis (Homo sapiens, UniProt O14672).
T1 construct: containing the catalytic/disintegrin domains; purchased R & D Systems (Minneapolis, Minn., USA)
T1 sequence (O14672 214-672 limits assumed): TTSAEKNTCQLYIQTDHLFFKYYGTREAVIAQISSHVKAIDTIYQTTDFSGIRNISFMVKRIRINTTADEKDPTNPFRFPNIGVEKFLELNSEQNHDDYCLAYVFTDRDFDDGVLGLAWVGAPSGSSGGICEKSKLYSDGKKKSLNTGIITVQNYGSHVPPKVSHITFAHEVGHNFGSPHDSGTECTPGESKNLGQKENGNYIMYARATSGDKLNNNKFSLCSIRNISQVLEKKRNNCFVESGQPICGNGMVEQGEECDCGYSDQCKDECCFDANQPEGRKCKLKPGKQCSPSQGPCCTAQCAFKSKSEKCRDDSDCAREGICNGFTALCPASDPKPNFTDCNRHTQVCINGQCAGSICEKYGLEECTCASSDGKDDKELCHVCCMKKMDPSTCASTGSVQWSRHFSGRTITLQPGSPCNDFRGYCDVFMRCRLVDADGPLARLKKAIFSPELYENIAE
Kind of test: Inhibition assay with ADAM10 catalytic/disintegrin construct, fluorescent substrate. Format: biochemical. The following applies: room temperature, 10 μM fluorescent substrate; read-out: inhibition constant (Ki), ADAM 10 (human) Cat/Dis. As for the experimental part: (§1) Inhibition assays with TACE and ADAM 10. Activity of TACE catalytic/disintegrin, TACE catalytic, or ADAM10 catalytic/disintegrin constructs was monitored at 3 minute intervals using the fluorescent substrate, Dabcyl-LAQAHomoPheRSC(Fluorescein)-NH2 (SEQ ID NO 17) with excitation 485 nm and emission 530 nm. The substrate was diluted from a 10 mM stock in DMSO to 10 μM in assay buffer containing 20 mM Tris, pH 8.0, and 0.0006% Brij-35. Reactions were run in a 96-well black-coated plate with either ADAM10 prodomain (10 nM-1.0 μM) alone or with enzyme. Concentrations of enzyme ranged from 0.5-2.0 nM for TACE and 5-15 nM for ADAM10. For assays with TACE and ADAM8 prodomain, the range of concentrations varied from 1-4.7 μM.
(§2) Calculation of inhibition constants. The amount of activity was calculated by subtracting the ADAM 10 prodomain control from the ADAM 10 prodomain with enzyme. All inhibition assays were performed at room temperature and the data fit to the following equation using Sigma Plot software:
(§3) [formula] where If is fractional inhibition, I is the inhibitor concentration and Ki is the inhibition constant.
Wild type ADAM 10 prodomain (23-213) was tested to determine the mode of inhibition of ADAM 10 protein. ADAM 10 protein was diluted 1:100 in buffer 25 mM Tris pH 8, 0.0006% Brij-35 and then 10 μl was added to 88 μl of substrate (20-100 μM), Dabcyl-LAQAHomoPheRSC(Fluorescein)-NH2 with excitation 485 nm and emission 530 nm. Prodomain, 2 μl, in 25 mM Tris, pH 8, 100 mM NaCl, 10% glycerol, 0.1% mercaptoethanol, and 50 μM CaCl2 was added to substrate before addition of enzyme. The final concentration of prodomain ranged from 17-170 nM. The fluorescence vs time was plotted, and slopes were taken from straight line fits of initial velocities. The reciprocal of the velocities was plotted vs the reciprocal of substrate squared since the normal Lineweaver Burke plot gave curved lines. The initial velocities vs substrate concentrations were fit as a family of curves to several allosteric models.

The next test deals with T2, TACE (human) Cat/Dis (Homo sapiens, UniProt P78536).
T2 construct: containing the catalytic/disintegrin domains; purchased R & D Systems (Minneapolis, Minn., USA)
T2 sequence (P78536 215-671 limits assumed): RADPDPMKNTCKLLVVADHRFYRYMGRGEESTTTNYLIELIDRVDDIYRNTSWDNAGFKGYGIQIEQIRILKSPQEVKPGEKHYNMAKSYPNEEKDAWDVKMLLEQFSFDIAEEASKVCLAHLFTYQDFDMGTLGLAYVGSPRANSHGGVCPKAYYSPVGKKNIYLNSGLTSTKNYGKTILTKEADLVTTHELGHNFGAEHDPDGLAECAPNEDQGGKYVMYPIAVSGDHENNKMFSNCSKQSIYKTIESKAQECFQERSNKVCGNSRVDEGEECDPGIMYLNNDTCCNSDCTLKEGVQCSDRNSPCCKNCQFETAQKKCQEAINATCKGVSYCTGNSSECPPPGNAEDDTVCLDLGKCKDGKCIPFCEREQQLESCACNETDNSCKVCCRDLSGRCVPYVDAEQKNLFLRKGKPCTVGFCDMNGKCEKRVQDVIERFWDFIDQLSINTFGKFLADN
The experiment in a line: Inhibition assay with TACE catalytic/disintegrin construct, fluorescent substrate. Type of test: biochemical. The following applies: room temperature; read-out: inhibition constant, TACE (human) Cat/Dis. The procedure:
as §1, §2, §3

Test [1] deals with T3, human ADAM 9 catalytic/disintegrin domains (Homo sapiens, UniProt Q13443).
T3 construct: human ADAM 9 catalytic/disintegrin domains activity; purchased R & D Systems (Minneapolis, Minn., USA)
T3 sequence (Q13443 206-697 limits assumed): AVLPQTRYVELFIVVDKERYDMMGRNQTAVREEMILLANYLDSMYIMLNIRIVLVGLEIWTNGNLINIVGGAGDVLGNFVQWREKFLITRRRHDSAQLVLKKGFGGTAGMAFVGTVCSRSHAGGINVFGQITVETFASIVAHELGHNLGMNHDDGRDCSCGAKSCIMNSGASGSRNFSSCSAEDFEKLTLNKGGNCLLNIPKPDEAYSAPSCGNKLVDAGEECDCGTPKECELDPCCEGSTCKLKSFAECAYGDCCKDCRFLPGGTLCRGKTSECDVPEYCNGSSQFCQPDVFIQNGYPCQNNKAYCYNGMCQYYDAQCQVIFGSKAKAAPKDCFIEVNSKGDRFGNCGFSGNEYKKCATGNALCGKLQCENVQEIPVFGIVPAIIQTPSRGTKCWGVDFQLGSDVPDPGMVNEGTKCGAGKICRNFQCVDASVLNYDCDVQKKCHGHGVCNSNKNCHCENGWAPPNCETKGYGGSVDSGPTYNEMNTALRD
The experiment in a line: Inhibition assay with ADAM 9. The following applies: read-out: inhibition constant, ADAM 9 (human). Type of test: biochemical. The procedure:
Inhibition assays with ADAM 9. The fluorescent substrate, Dabcyl-PchaGC(Me)HAK(Fam)-NH2 (SEQ ID NO 19) (10 μM), in a buffer containing 25 mM Tris, pH 8.0, 0.0006% Brij-35, was used to measure human ADAM 9 catalytic/disintegrin domains activity. The ADAM 9 was provided as a 0.1 μg/μl stock solution, from which 3 μl was added to start the reaction in the absence or presence of ADAM10 prodomain (78-5000 nM). Fluorescence intensities were measured every 10-20 minutes at excitation and emission wavelengths of 485 and 530 nm respectively.
as §2, §3

Test [2] concerns CD23 shedding in U937 cells. The experiment in a line: CD23 release from U937 cells, soluble CD23 ELISA. Type of test: cell-based. The following applies: 150-600 nM, IL-4, 24 hr, FIG. 2B. As for the experimental part:
ADAM 10 prodomains were also tested in assays to determine if ADAM 10 protein functions as a CD23 sheddase. Cells (100,000 per well) were seeded in round-bottomed 96-well plates (Sarstedt, Newton, N.C.) in 0.2 ml of media supplemented with IL-4 with inhibitors (A10 23-215 150-600 nM, GM6001 10-50 μM, TAPI-2 10-50 μM, or TIMPs 250 nM) or vehicle controls (A10 23-215 buffer: 25 mM NaH2PO4 pH 7.0, 125 mM KCl, 75 mM NaCl 20% glycerol, PBS, or dimethyl sulfoxide). Cells were cultured for 24 hr. The conditioned medium was harvested by centrifugation (2000×g, 15 min). The conditioned medium was assayed by ELISA for soluble CD23 according to the manufacturers' instructions (BD Biosciences, Invitrogen).

We go through one molecule from US8034783B2, “Prodomain modulators of ADAM 10” (Biozyme, Inc., priority 2006, dated 2011).

B1: C173S ProADAM 10 23-213 (C-terminal His tag): mouse ADAM 10 prodomain 23-213 with cysteine 173 mutated to serine, C-terminal His tag (protein, UniProt O35598 23-213, looked up, variant C173S)
chain: NPLNKYIRHYEGLSYNVDSLHQKHQRAKRAVSHEDQFLLLDFHAHGRQFNLRMKRDTSLFSDEFKVETSNKVLDYDTSHIYTGHIYGEEGSFSHGSVIDGRFEGFIKTRGGTFYIEPAERYIKDRILPFHSVIYHEDDINYPHKYGPQGGSADHSVFERMRKYQMTGVEEGARAHPEKHAASSGPELLRKK
modifications: pro-form C-terminal His tag
notes: mouse ADAM 10 prodomain 23-213 with cysteine 173 mutated to serine, C-terminal His tag
For the molecule B1, the Ki was 36 ± 9 nM with ADAM 10 (human) Cat/Dis, above 3000 nM in the test with TACE (human) Cat/Dis and above 1000 nM in test [1]. In addition, the “inhibition of CD23 shedding, U937 cells” value in test [2] is recorded as “about 30%”.
